From article PMC9499628, “Nuclear Factor Kappa B Promotes Ferritin Heavy Chain Expression in Bombyx mori in Response to B. mori Nucleopolyhedrovirus Infection”

T1: BmRelish RHD (RelRHD) (Bombyx mori, UniProt A0A8R2LW60 51-335)
T1 sequence: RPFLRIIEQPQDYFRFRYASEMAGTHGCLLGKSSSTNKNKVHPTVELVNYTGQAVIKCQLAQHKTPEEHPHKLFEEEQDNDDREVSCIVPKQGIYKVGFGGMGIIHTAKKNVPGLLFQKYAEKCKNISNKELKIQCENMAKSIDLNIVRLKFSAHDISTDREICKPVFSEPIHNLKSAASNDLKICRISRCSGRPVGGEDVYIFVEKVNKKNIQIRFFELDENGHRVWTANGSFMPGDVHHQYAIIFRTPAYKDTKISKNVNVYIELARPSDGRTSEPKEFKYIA

B1: probe-CRE2 (dsDNA)
DNA 1: AATGTAGGTTATTTCCATCTCG
DNA 2: CGAGATGGAAATAACCTACATT
B2: probe-CRE4 (dsDNA)
DNA 1: AATAAGTGGGAATCTCTCCATCTCGC
DNA 2: GCGAGATGGAGAGATTCCCACTTATT
B3: Mut-CRE2 (dsDNA)
DNA 1: AATGTACATTATCTCCATCTCG
DNA 2: CGAGATGGAGATAATGTACATT
B4: Mut-CRE4 (dsDNA)
DNA 1: AATAAGTGCCAAACACTCCATCTCGC
DNA 2: GCGAGATGGAGTGTTTGGCACTTATT

Key:
BmRelish RHD (RelRHD) [1] = biological target: T1, BmRelish RHD (RelRHD); assay: EMSA; cold probe weakens band; Chemiluminescent EMSA Kit (Beyotime), manufacturer's instructions; buffer, salt, pH and temperature not stated; conditions: protein: recombinant; tags: 6xHis (pET-30a); chain copies: 2; label: 5' biotin (unlabelled as cold probe); blunt
BmRelish RHD (RelRHD) [2] = biological target: T1, BmRelish RHD (RelRHD); assay: competition; mutant competitor against CRE2 probe; band not affected; Chemiluminescent EMSA Kit (Beyotime), manufacturer's instructions; buffer, salt, pH and temperature not stated; conditions: protein: recombinant; tags: 6xHis (pET-30a); chain copies: 2; blunt
BmRelish RHD (RelRHD) [3] = biological target: T1, BmRelish RHD (RelRHD); assay: competition; mutant competitor against CRE4 probe; band not affected; Chemiluminescent EMSA Kit (Beyotime), manufacturer's instructions; buffer, salt, pH and temperature not stated; conditions: protein: recombinant; tags: 6xHis (pET-30a); chain copies: 2; blunt

Row | Binder | binding result (BmRelish RHD (RelRHD) [1]) | further results
1 | B1 | binds | –
2 | B2 | binds | –
3 | B3 | – | binding result (BmRelish RHD (RelRHD) [2]): no binding
4 | B4 | – | binding result (BmRelish RHD (RelRHD) [3]): no binding
